{"source": "patent US20230407373A1", "about": "(priority 2020, published 2023)", "molecules": {"B1": {"name": "LUC7L2: host protein, UniProt Q9Y383 (protein, UniProt Q9Y383 1-392, looked up)", "Putative RNA-binding protein …": "MSAQAQMRAMLDQLMGTSRDGDTTRQRIKFSDDRVCKSHLLNCCPHDVLSGTRMDLGECLKVHDLALRADYEIASKEQDFFFELDAMDHLQSFIADCDRRTEVAKKRLAETQEEISAEVAAKAERVHELNEEIGKLLAKVEQLGAEGNVEESQKVMDEVEKARAKKREAEEVYRNSMPASSFQQQKLRVCEVCSAYLGLHDNDRRLADHFGGKLHLGFIEIREKLEELKRVVAEKQEKRNQERLKRREEREREEREKLRRSRSHSKNPKRSRSREHRRHRSRSMSRERKRRTRSKSREKRHRHRSRSSSRSRSRSHQRSRHSSRDRSRERSKRRSSKERFRDQDLASCDRDRSSRDRSPRDRDRKDKKRSYESANGRSEDRRSSEEREAGEI"}, "B2": {"name": "PDIA6: host protein, UniProt Q15084 (protein, UniProt Q15084 20-440, looked up)", "Protein disulfide-isomerase A6": "LYSSSDDVIELTPSNFNREVIQSDSLWLVEFYAPWCGHCQRLTPEWKKAATALKDVVKVGAVDADKHHSLGGQYGVQGFPTIKIFGSNKNRPEDYQGGRTGEAIVDAALSALRQLVKDRLGGRSGGYSSGKQGRSDSSSKKDVIELTDDSFDKNVLDSEDVWMVEFYAPWCGHCKNLEPEWAAAASEVKEQTKGKVKLAAVDATVNQVLASRYGIRGFPTIKIFQKGESPVDYDGGRTRSDIVSRALDLFSDNAPPPELLEIINEDIAKRTCEEHQLCVVAVLPHILDTGAAGRNSYLEVLLKLADKYKKKMWGWLWTEAGAQSELETALGIGGFGYPAMAAINARKMKFALLKGSFSEQGINEFLRELSFGRGSTAPVGGGAFPTIVEREPWDGRDGELPVEDDIDLSDVELDDLGKDEL"}, "B3": {"name": "SF3B2 (protein, UniProt Q13435 1-895, looked up)", "Splicing factor 3B subunit 2": "MATEHPEPPKAELQLPPPPPPGHYGAWAAQELQAKLAEIGAPIQGNREELVERLQSYTRQTGIVLNRPVLRGEDGDKAAPPPMSAQLPGIPMPPPPLGLPPLQPPPPPPPPPPGLGLGFPMAHPPNLGPPPPLRVGEPVALSEEERLKLAQQQAALLMQQEERAKQQGDHSLKEHELLEQQKRAAVLLEQERQQEIAKMGTPVPRPPQDMGQIGVRTPLGPRVAAPVGPVGPTPTVLPMGAPVPRPRGPPPPPGDENREMDDPSVGPKIPQALEKILQLKESRQEEMNSQQEEEEMETDARSSLGQSASETEEDTVSVSKKEKNRKRRNRKKKKKPQRVRGVSSESSGDREKDSTRSRGSDSPAADVEIEYVTEEPEIYEPNFIFFKRIFEAFKLTDDVKKEKEKEPEKLDKLENSAAPKKKGFEEEHKDSDDDSSDDEQEKKPEAPKLSKKKLRRMNRFTVAELKQLVARPDVVEMHDVTAQDPKLLVHLKATRNSVPVPRHWCFKRKYLQGKRGIEKPPFELPDFIKRTGIQEMREALQEKEEQKTMKSKMREKVRPKMGKIDIDYQKLHDAFFKWQTKPKLTIHGDLYYEGKEFETRLKEKKPGDLSDELRISLGMPVGPNAHKVPPPWLIAMQRYGPPPSYPNLKIPGLNSPIPESCSFGYHAGGWGKPPVDETGKPLYGDVFGTNAAEFQTKTEEEEIDRTPWGELEPSDEESSEEEEEEESDEDKPDETGFITPADSGLITPGGFSSVPAGMETPELIELRKKKIEEAMDGSETPQLFTVLPEKRTATVGGAMMGSTHIYDMSTVMSRKGPAPELQGVEVALAPEELELDPMAMTQKYEEHVREQQAQVEKEDFSDMVAEHAAKQKQKKRKAQPQDSRGGSKKYKEFKF"}, "B4": {"name": "HRNPA2B1 (protein, UniProt P22626 1-353, looked up)", "Heterogeneous nuclear …": "MEKTLETVPLERKKREKEQFRKLFIGGLSFETTEESLRNYYEQWGKLTDCVVMRDPASKRSRGFGFVTFSSMAEVDAAMAARPHSIDGRVVEPKRAVAREESGKPGAHVTVKKLFVGGIKEDTEEHHLRDYFEEYGKIDTIEIITDRQSGKKRGFGFVTFDDHDPVDKIVLQKYHTINGHNAEVRKALSRQEMQEVQSSRSGRGGNFGFGDSRGGGGNFGPGPGSNFRGGSDGYGSGRGFGDGYNGYGGGPGGGNFGGSPGYGGGRGGYGGGGPGYGNQGGGYGGGYDNYGGGNYGSGNYNDFGNYNQQPSNYGPMKSGNFGGSRNMGGPYGGGNYGPGGSGGSGGYGGRSRY"}, "B5": {"name": "HRNPR (protein, UniProt O43390 2-633, looked up)", "Heterogeneous nuclear …": "ANQVNGNAVQLKEEEEPMDTSSVTHTEHYKTLIEAGLPQKVAERLDEIFQTGLVAYVDLDERAIDALREFNEEGALSVLQQFKESDLSHVQNKSAFLCGVMKTYRQREKQGSKVQESTKGPDEAKIKALLERTGYTLDVTTGQRKYGGPPPDSVYSGVQPGIGTEVFVGKIPRDLYEDELVPLFEKAGPIWDLRLMMDPLSGQNRGYAFITFCGKEAAQEAVKLCDSYEIRPGKHLGVCISVANNRLFVGSIPKNKTKENILEEFSKVTEGLVDVILYHQPDDKKKNRGFCFLEYEDHKSAAQARRRLMSGKVKVWGNVVTVEWADPVEEPDPEVMAKVKVLFVRNLATTVTEEILEKSFSEFGKLERVKKLKDYAFVHFEDRGAAVKAMDEMNGKEIEGEEIEIVLAKPPDKKRKERQAARQASRSTAYEDYYYHPPPRMPPPIRGRGRGGGRGGYGYPPDYYGYEDYYDDYYGYDYHDYRGGYEDPYYGYDDGYAVRGRGGGRGGRGAPPPPRGRGAPPPRGRAGYSQRGAPLGPPRGSRGGRGGPAQQQRGRGSRGSRGNRGGNVGGKRKADGYNQPDSKRRQTNNQQNWGSQPIAQQPLQQGGDYSGNYGYNNDNQEFYQDTYGQQWK"}, "B6": {"name": "DOX3X (protein, UniProt O00571 2-662, looked up)", "ATP-dependent RNA helicase …": "SHVAVENALGLDQQFAGLDLNSSDNQSGGSTASKGRYIPPHLRNREATKGFYDKDSSGWSSSKDKDAYSSFGSRSDSRGKSSFFSDRGSGSRGRFDDRGRSDYDGIGSRGDRSGFGKFERGGNSRWCDKSDEDDWSKPLPPSERLEQELFSGGNTGINFEKYDDIPVEATGNNCPPHIESFSDVEMGEIIMGNIELTRYTRPTPVQKHAIPIIKEKRDLMACAQTGSGKTAAFLLPILSQIYSDGPGEALRAMKENGRYGRRKQYPISLVLAPTRELAVQIYEEARKFSYRSRVRPCVVYGGADIGQQIRDLERGCHLLVATPGRLVDMMERGKIGLDFCKYLVLDEADRMLDMGFEPQIRRIVEQDTMPPKGVRHTMMFSATFPKEIQMLARDFLDEYIFLAVGRVGSTSENITQKVVWVEESDKRSFLLDLLNATGKDSLTLVFVETKKGADSLEDFLYHEGYACTSIHGDRSQRDREEALHQFRSGKSPILVATAVAARGLDISNVKHVINFDLPSDIEEYVHRIGRTGRVGNLGLATSFFNERNINITKDLLDLLVEAKQEVPSWLENMAYEHHYKGSSRGRSKSSRFSGGFGARDYRQSSGASSSSFSSSRASSSRSGGGGHGSSRGFGGGGYGGFYNSDGYGGNYNSQGVDWWGN"}, "B7": {"name": "RAVER1 (protein, UniProt Q8IY67 2-606, looked up)", "Ribonucleoprotein PTB-binding …": "AADVSVTHRPPLSPKSGAEVEAGDAAERRAPEEELPPLDPEEIRKRLEHTERQFRNRRKILIRGLPGDVTNQEVHDLLSDYELKYCFVDKYKGTAFVTLLNGEQAEAAINAFHQSRLRERELSVQLQPTDALLCVANLPPSLTQQQFEELVRPFGSLERCFLVYSERTGQSKGYGFAEYMKKDSAARAKSDLLGKPLGPRTLYVHWTDAGQLTPALLHSRCLCVDRLPPGFNDVDALCRALSAVHSPTFCQLACGQDGQLKGFAVLEYETAEMAEEAQQQADGLSLGGSHLRVSFCAPGPPGRSMLAALIAAQATALNRGKGLLPEPNILQLLNNLGPSASLQLLLNPLLHGSAGGKQGLLGAPPAMPLLNGPALSTALLQLALQTQGQKKPGILGDSPLGALQPGAQPANPLLGELPAGGGLPPELPPRRGKPPPLLPSVLGPAGGDREALGLGPPAAQLTPPPAPVGLRGSGLRGPLSHFYSGSPTSYFTSGLQAGLKQSHLSKAIGSSPLGSGEGLLGLSPGPNGHSHLLKVRAGGGDMQGWEAPAPQRPLTRPALPSVSRPHWAARNAALPTCCPRPSPAQKAAMWASTPRASAATTRTPT"}}, "type_in_all_cases": "binding", "key": {"[1]": {"system": "gRNA of HCoV-OC43", "settings": "for target (spectral count) / background (spectral count): type g_36_m, 36 hpi, Probe I; for target (spectral count): HCoV-OC43-infected HCT-8 cells; for background (spectral count): uninfected-probe control; for target (spectral count, OC43 Probe I RNP capture) / background (spectral count, no-probe control): type n_48_v: 48 hours post-infection; for target (spectral count, OC43 Probe I RNP capture): infected cells, unweighted spectral count; for background (spectral count, no-probe control): no-probe control on infected cells"}, "[2]": {"system": "HCoV-OC43 gRNA and sgRNA", "settings": "for target (unweighted spectral count, OC43 Probe II capture): tested against no-probe control, FDR<10%; for target (unweighted spectral count, OC43 Probe II) / background (unweighted spectral count, no-probe control): type n_48_v, 48 hpi; for target (unweighted spectral count, OC43 Probe II): OC43 Probe II capture on infected cells; for background (unweighted spectral count, no-probe control): no-probe control on infected cells"}, "[3]": {"system": "SARS-CoV-2 gRNA and sgRNAs", "settings": "for target (unweighted spectral count in RNP capture): Probe II capture, LC-MS/MS LFQ; for background (unweighted spectral count in control): no-probe control pull-down, used as background for Probe II"}}, "note": "Like-named read-outs stand apart in the source and are kept apart here.", "data": [{"molecule": "B1", "values": [{"measurement": "target (spectral count)", "setting": "[1]", "value": 9}, {"measurement": "background (spectral count)", "setting": "[1]", "value": 1}, {"measurement": "target (unweighted spectral count, OC43 Probe II capture)", "setting": "[2]; 24 hpi, type n_24_v", "value": 4}]}, {"molecule": "B2", "values": [{"measurement": "target (spectral count)", "setting": "[1]", "value": 12}, {"measurement": "background (spectral count)", "setting": "[1]", "value": 1}, {"measurement": "target (unweighted spectral count, OC43 Probe II capture)", "setting": "[2]; 24 hpi, type n_24_v", "value": 4}, {"measurement": "target (unweighted spectral count, OC43 Probe II capture)", "setting": "[2]; 36 hpi, type n_36_v", "value": 7}, {"measurement": "target (spectral count)", "setting": "[2]; type s_36_m, HCoV-OC43-infected HCT-8 cells, 36 hpi, Probe II", "value": 7}, {"measurement": "background (spectral count)", "setting": "[2]; type s_36_m, uninfected-probe control, 36 hpi, Probe II", "value": 1}]}, {"molecule": "B3", "values": [{"measurement": "target (spectral count, OC43 Probe I RNP capture)", "setting": "[1]", "value": 5}, {"measurement": "background (spectral count, no-probe control)", "setting": "[1]", "value": 1}, {"measurement": "target (unweighted spectral count, OC43 Probe II)", "setting": "[2]", "value": 5}, {"measurement": "background (unweighted spectral count, no-probe control)", "setting": "[2]", "value": 1}]}, {"molecule": "B4", "values": [{"measurement": "target (unweighted spectral count in RNP capture)", "setting": "[3]", "value": 88}, {"measurement": "background (unweighted spectral count in control)", "setting": "[3]", "value": 1}]}, {"molecule": "B5", "values": [{"measurement": "target (unweighted spectral count in RNP capture)", "setting": "[3]", "value": 32}, {"measurement": "background (unweighted spectral count in control)", "setting": "[3]", "value": 1}]}, {"molecule": "B6", "values": [{"measurement": "target (unweighted spectral count in RNP capture)", "setting": "[3]", "value": 49}, {"measurement": "background (unweighted spectral count in control)", "setting": "[3]", "value": 1}]}, {"molecule": "B7", "values": [{"measurement": "target (spectral count, OC43 Probe I RNP capture)", "setting": "[1]", "value": 5}, {"measurement": "background (spectral count, no-probe control)", "setting": "[1]", "value": 1}, {"measurement": "target (unweighted spectral count, OC43 Probe II)", "setting": "[2]", "value": 5}, {"measurement": "background (unweighted spectral count, no-probe control)", "setting": "[2]", "value": 1}]}]}
